Like-named read-outs stand apart in the source and are kept apart here.
Experiments:
[1] = target: T1, GST-CDKACTH1 labelled with Cy3 (CDKACTH1-Cy3)
T1 chain: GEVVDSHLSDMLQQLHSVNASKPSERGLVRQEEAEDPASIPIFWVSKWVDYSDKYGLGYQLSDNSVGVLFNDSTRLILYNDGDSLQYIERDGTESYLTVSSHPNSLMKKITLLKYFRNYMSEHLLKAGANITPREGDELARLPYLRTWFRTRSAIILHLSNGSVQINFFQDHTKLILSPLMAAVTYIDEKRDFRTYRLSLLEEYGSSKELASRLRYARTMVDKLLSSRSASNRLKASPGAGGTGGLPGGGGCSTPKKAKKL

[2] = test system: GST-CDKACTH1 labelled with Cy3 (CDKACTH1-Cy3); remark: listed apart in the source

B1: Plk3 kinase (protein)
chain: MEPAAGFLSPRPFQRAAAAPAPPAGPGPPPSALRGPELEMLAGLPTSDPGRLITDPRSGRTYLKGRLLGKGGFARCYEATDTETGSAYAVKVIPQSRVAKPHQREKILNEIELHRDLQHRHIVRFSHHFEDADNIYIFLELCSRKSLAHIWKARHTLLEPEVRYYLRQILSGLKYLHQRGILHRDLKLGNFFITENMELKVGDFGLAARLEPPEQRKKTICGTPNYVAPEVLLRQGHGPEADVWSLGCVMYTLLCGSPPFETADLKETYRCIKQVHYTLPASLSLPARQLLAAILRASPRDRPSIDQILRHDFFTKGYTPDRLPISSCVTVPDLTPPNPARSLFAKVTKSLFGRKKKSKNHAQERDEVSGLVSGLMRTSVGHQDARPEAPAASGPAPVSLVETAPEDSSPRGTLASSGDGFEEGLTVATVVESALCALRNCIAFMPPAEQNPAPLAQPEPLVWVSKWVDYSNKFGFGYQLSSRRVAVLFNDGTHMALSANRKTVHYNPTSTKHFSFSVGAVPRALQPQLGILRYFASYMEQHLMKGGDLPSVEEVEVPAPPLLLQWVKTDQALLMLFSDGTVQVNFYGDHTKLILSGWEPLLVTFVARNRSACTYLASHLRQLGCSPDLRQRLRYALRLLRDRSPA
real-time fluorescence kinase assay (Cy3 fluorescence) [1]: Plk1 or Plk3 did not induce any significant changes in the fluorescence of CDKACTH1, in the same range of concentrations

B2: recombinant CDK4/Cyclin D (enzyme, part only; not given: Cyclin D partner)
chain: MATSRYEPVAEIGVGAYGTVYKARDPHSGHFVALKSVRVPNGGGGGGGLPISTVREVALLRRLEAFEHPNVVRLMDVCATSRTDREIKVTLVFEHVDQDLRTYLDKAPPPGLPAETIKDLMRQFLRGLDFLHANCIVHRDLKPENILVTSGGTVKLADFGLARIYSYQMALTPVVVTLWYRAPEVLLQSTYATPVDMWSVGCIFAEMFRRKPLFCGNSEADQLGKIFDLIGLPPEDDWPRDVSLPRGAFPPRGPRPVQSVVPEMEESGAQLLLEMLTFNPHKRISAFRALQHSYLHKDEGNPE
real-time fluorescence kinase assay (Cy3 fluorescence) [2]: CDK4/Cyclin D kinase induced changes in CDKACTH1 fluorescence reminiscent of CDK2/Cyclin A

From US20150355179
